These results are taken from patent US20170189508A1 (IMMATICS BIOTECHNOLOGIES, published 2017).

Read-outs that look alike come from different tables or passages of the source.

Assay [1] concerns the target HLA-A*02 (human).
Assay [2] addresses HLA-A*02 (human). The assay is described as the table's title states.

For KIIDFLSAL [KIIDFLSAL (SEQ ID NO: 235)], the binding result in assay [1] is recorded as “binds”.

KLQNIMMLL [KLQNIMMLL (SEQ ID NO: 230)]: the binding result in assay [1] is on record as “binds”.

Regarding AILAHLNTV [AILAHLNTV (SEQ ID NO: 229)], the binding result in assay [1] is on record as “binds”.

For RLMEENWNA [RLMEENWNA (SEQ ID NO: 27)], the binding result in assay [2] is on record as “binds”.
